Assay in all cases: FRET or BRET; 2pFLIM-FRET in single dendritic spines of CA1 pyramidal neurons, organotypic hippocampal slices; train of two-photon glutamate uncaging (0.49 Hz, 30 pulses, sLTP protocol) without extracellular Mg^2+; room temperature (25–27 °C); 128 ms/frame; decay after the train fitted with a double exponential; T286A in slices of Camk2a^T286A knock-in mice
On the technique in general: In BRET a luciferase serves as donor, and the signal depends on an acceptor being close.

Assay [1] has as its target mEGFP-CaMKIIα (wildtype) (Rattus norvegicus) (UniProt P11275).
The target of assay [2] is mEGFP-CaMKIIα^T286A (Rattus norvegicus) (UniProt P11275).
For assay [3], the target named is mEGFP-CaMKIIα^T305A/T306A (Rattus norvegicus) (UniProt P11275).

Turning to “mCherry-CaM (from UniProt P0DP26 1-149) (natural protein; other documents disagree on this pair)”, the dissociation time constant (tau fast, decay after the train) in assay [1] amounted to 3.2 s. Consider “mCherry-CaM (from UniProt P0DP26 1-149) (natural protein)”, for which the dissociation time constant (tau fast, decay after the train) in assay [2] turned out to be 1 s; in assay [3], 9.3 s.

The values are drawn from paper PMC6592955.
